Measured values reported in patent US20150086555A1.

B1: TCN-541 (5062_M11) (antibody, V domains shown)
VH: QVQLQESGPGLVKPSETLSLTCTVSGGSINSYYWNWIRQPPGKGLEWIGYIYHSGSTNYNPSLKSRVTISVDTSKNQFSLQLSSVTAADTAVYYCARLRTDYGDPDSVYYYGMDVWGQGTTVTVSS
VL: SYELTQPPSVSVSPGQTARITCSGDALPKQNAYWYQQKPGQAPVLLIYKDSERPSGIPERFSGSSSGTTVTLTISGVQAEDEADYYCQSADSSGTSWVFGGGTKLTVL
B2: TCN-547 (5092_F11) (antibody, V domains shown)
VH: QVQLQESGPGLVKPSQTLSLTCTVSGDSISSVDHYWSWIRQHPVKGLEWIGFMYYSASTYYNPSLKSRVTISTDTSKNQFSLRLSSVTAADTAVYYCARGTCAGDCSLHYYYYGLDVWGQGRTVTVSS
VL: DIQMTQSPSSLSASVGDRVTITCRASQSISSYLNWYQHKPGKAPKVLMYAVSILQSGVPSRFSGSGSGADFTLTISSLQPEDFATYYCQQSYSSPLTFGGGTKVEIK
B3: TCN-558 (5248_H10b) (antibody, V domains shown)
VH: QVQLVQSGSEVKKPGTSVKVSCTASGSVFTNYGISWVRQAPGQGLEWMGGIIPLFGAAKYAQKFQGRVTITADESTKTVYMELSRLTSKDTAIYFCAKAPRVYEYYFDQWGQGTPVTVSS
VL: EIVMTQFPATLSVSPGERVTLSCRASQSVSNNLAWYQQKPGQPPRLLIYDASTRATGVPAKFSGTGSGTEFTLSISSLQSEDFAVYYCQQYHNWPPSYSFGLGTKLEIK
B4: TCN-548 (5092_P01) (antibody, V domains shown)
VH: QVQLQESGPGLVKPSETLSLTCTVSSGPMSDYYWSWIRQPPGKGLEWIGHVSVSHGGRTKSNPSVMSRVTISVETSKNQFSLKLTSVTAADTAVYYCARLNYYDRSGYHSPDGPSNNWFDPWGQGTLVTVSS
VL: not shown

Assays:
Conditions in all cases: remark: other sources report otherwise
[1] = biological target: recombinant soluble homotrimeric HA of A/Wisconsin/67/05 (H3N2) (Influenza A virus A/Wisconsin/67/2005(H3N2)); assay: HA microarray, BCC supernatant
[2] = biological target: recombinant soluble homotrimeric HA of A/Indonesia/5/05 (H5N1) (Influenza A virus A/Indonesia/5/2005(H5N1)); assay: HA microarray, BCC supernatant
[3] = biological target: T1, recombinant soluble homotrimeric HA of A/Vietnam/1203/04 (H5N1) (Influenza A virus A/VietNam/1203/2004(H5N1)); assay: HA microarray, BCC supernatant
[4] = biological target: recombinant soluble homotrimeric HA of A/chicken/Vietnam/NCVD-016/08 (H5N1) (Influenza A virus A/chicken/Vietnam/NCVD-016/2008(H5N1)); assay: trimeric HA microarray, transfection supernatant set 5
[5] = biological target: recombinant soluble homotrimeric HA of A/South Carolina/1/18 (H1N1) (Influenza A virus A/South Carolina/1/18 (H1N1)); assay: as above
[6] = biological target: T1, recombinant soluble homotrimeric HA of …; assay: as above
[7] = biological target: recombinant homotrimeric HA A/Hong Kong/2108/03 H9N2 (Influenza A virus A/HK/2108/2003(H9N2)); assay: protein microarray, purified IgG, trimeric HA
[8] = biological target: recombinant homotrimeric HA A/Japan/305/57 H2N2 (Influenza A virus A/Japan/305/1957(H2N2)); assay: protein microarray, purified IgG, trimeric HA
[9] = biological target: recombinant homotrimeric HA A/Vietnam/1203/04 H5N1 (Influenza A virus A/VietNam/1203/2004(H5N1)); assay: protein microarray, purified IgG, trimeric HA
[10] = biological target: recombinant homotrimeric HA A/duck/Yangzhou/02/05 H8N4 (Influenza A virus A/duck/Yangzhou/02/2005(H8N4)); assay: protein microarray, purified IgG, trimeric HA
[11] = biological target: recombinant homotrimeric HA A/California/4/09 H1N1 (Influenza A virus A/California/04/2009(H1N1)); assay: protein microarray, purified IgG, trimeric HA
[12] = biological target: recombinant homotrimeric HA A/South Carolina/1/18 H1N1 (Influenza A virus A/South Carolina/1/18 (H1N1)); assay: protein microarray, purified IgG, trimeric HA
[13] = biological target: recombinant homotrimeric HA A/Anhui/1/05 H5N1 (Influenza A virus A/Anhui/1/2005(H5N1)); assay: protein microarray, purified IgG, trimeric HA
[14] = biological target: recombinant homotrimeric HA A/Egypt/3300-NAMRU3/08 H5N1 (Influenza A virus A/Egypt/3300-NAMRU3/2008(H5N1)); assay: protein microarray, purified IgG, trimeric HA
[15] = biological target: recombinant homotrimeric HA A/Indonesia/5/05 H5N1 (Influenza A virus A/Indonesia/5/2005(H5N1)); assay: protein microarray, purified IgG, trimeric HA
[16] = biological target: recombinant soluble homotrimeric HA of A/swine/Ontario/01911-2/99 (H4N6) (Influenza A virus A/Swine/Ontario/01911-2/99 (H4N6)); assay: HA microarray, BCC supernatant
[17] = biological target: recombinant soluble homotrimeric HA of A/Solomon Islands/3/06 (H1N1) (Influenza A virus A/Solomon Islands/3/2006(H1N1)); assay: HA microarray, BCC supernatant
[18] = biological target: recombinant soluble homotrimeric HA of A/duck/Yangzhou/02/05 (H8N4) (Influenza A virus A/duck/Yangzhou/02/2005(H8N4)); assay: HA microarray, BCC supernatant
[19] = biological target: recombinant soluble homotrimeric HA of A/Japan/305/57 (H2N2) (Influenza A virus A/Japan/305/1957(H2N2)); assay: HA microarray, BCC supernatant
[20] = biological target: recombinant soluble homotrimeric HA of A/Netherlands/219/03 (H7N7) (Influenza A virus A/Netherlands/219/03(H7N7)); assay: HA microarray, BCC supernatant
[21] = biological target: recombinant soluble homotrimeric HA, A/northern shoveler/California/HKWF115/07 H6N4 (Influenza A virus A/northern shoveler/California/HKWF115/2007(H6N1)); assay: microarray, transfection SN IgG, trimeric HA
[22] = biological target: recombinant soluble homotrimeric HA, A/swine/Ontario/01911-2/99 H4N6 (Influenza A virus A/Swine/Ontario/01911-2/99 (H4N6)); assay: microarray, transfection SN IgG, trimeric HA
[23] = biological target: recombinant soluble homotrimeric HA, A/South Carolina/1/18 H1N1 (Influenza A virus A/South Carolina/1/18 (H1N1)); assay: microarray, transfection SN IgG, trimeric HA
[24] = biological target: recombinant soluble homotrimeric HA, A/duck/Yangzhou/02/05 H8N4 (Influenza A virus A/duck/Yangzhou/02/2005(H8N4)); assay: microarray, transfection SN IgG, trimeric HA
[25] = biological target: recombinant soluble homotrimeric HA, A/Solomon Islands/3/06 H1N1 (Influenza A virus A/Solomon Islands/3/2006(H1N1)); assay: microarray, transfection SN IgG, trimeric HA
[26] = biological target: recombinant soluble homotrimeric HA, A/Egypt/3300-NAMRU3/08 H5N1 (Influenza A virus A/Egypt/3300-NAMRU3/2008(H5N1)); assay: microarray, transfection SN IgG, trimeric HA
[27] = biological target: recombinant soluble homotrimeric HA, A/Japan/305/57 H2N2 (Influenza A virus A/Japan/305/1957(H2N2)); assay: microarray, transfection SN IgG, trimeric HA
[28] = biological target: recombinant soluble homotrimeric HA, A/Netherlands/219/03 H7N7 (Influenza A virus A/Netherlands/219/03(H7N7)); assay: microarray, transfection SN IgG, trimeric HA
[29] = biological target: recombinant soluble homotrimeric HA, A/chicken/Vietnam/NCVD-016/08 H5N1 (Influenza A virus A/chicken/Vietnam/NCVD-016/2008(H5N1)); assay: microarray, transfection SN IgG, trimeric HA
[30] = biological target: recombinant soluble homotrimeric HA, A/Wisconsin/67/05 H3N2 (Influenza A virus A/Wisconsin/67/2005(H3N2)); assay: microarray, transfection SN IgG, trimeric HA
[31] = biological target: recombinant soluble homotrimeric HA, A/California/4/09 H1N1 (Influenza A virus A/California/04/2009(H1N1)); assay: microarray, transfection SN IgG, trimeric HA
[32] = biological target: recombinant homotrimeric HA A/chicken/Vietnam/NCVD-016/08 H5N1 (Influenza A virus A/chicken/Vietnam/NCVD-016/2008(H5N1)); assay: protein microarray, purified IgG, trimeric HA
[33] = biological target: recombinant homotrimeric HA A/Hong Kong/1073/99 H9N2 (Influenza A virus A/Hong Kong/1073/99 (H9N2)); assay: protein microarray, purified IgG, trimeric HA
[34] = biological target: recombinant homotrimeric HA A/Wisconsin/67/05 H3N2 (Influenza A virus A/Wisconsin/67/2005(H3N2)); assay: protein microarray, purified IgG, trimeric HA
[35] = biological target: recombinant homotrimeric HA A/northern shoveler/California/HKWF115/07 H6N4 (Influenza A virus A/northern shoveler/California/HKWF115/2007(H6N1)); assay: protein microarray, purified IgG, trimeric HA
[36] = biological target: recombinant homotrimeric HA A/Netherlands/219/03 H7N7 (Influenza A virus A/Netherlands/219/03(H7N7)); assay: protein microarray, purified IgG, trimeric HA
[37] = biological target: recombinant homotrimeric HA A/Solomon Islands/3/06 H1N1 (Influenza A virus A/Solomon Islands/3/2006(H1N1)); assay: protein microarray, purified IgG, trimeric HA
[38] = biological target: recombinant soluble homotrimeric HA of A/California/4/09 (H1N1) (Influenza A virus A/California/04/2009(H1N1)); assay: HA microarray, BCC supernatant

Binder	Trimeric HA Binding: RLU [1]	Trimeric HA Binding: RLU [7]	Trimeric HA Binding: RLU [8]	Trimeric HA Binding: RLU [11]	Trimeric HA Binding: RLU [12]	Trimeric HA Binding: RLU [14]	Trimeric HA Binding: RLU [16]	Trimeric HA Binding: RLU [17]	Trimeric HA Binding: RLU [18]	Trimeric HA Binding: RLU [19]	Trimeric HA Binding: RLU [20]	Trimeric HA Binding: RLU [21]	Trimeric HA Binding: RLU [22]	Trimeric HA Binding: RLU [23]	Trimeric HA Binding: RLU [24]	Trimeric HA Binding: RLU [25]	Trimeric HA Binding: RLU [26]	Trimeric HA Binding: RLU [27]	Trimeric HA Binding: RLU [28]	Trimeric HA Binding: RLU [29]	other results
B1	2920 RLU	175 RLU	934 RLU	348 RLU	192 RLU	791 RLU															Trimeric HA Binding: RLU [2]: 30 RLU; Trimeric HA Binding: RLU [3]: 43 RLU; Trimeric HA Binding: RLU [4]: 11000 RLU; Trimeric HA Binding: RLU [5]: 2580 RLU; Trimeric HA Binding: RLU [6]: 45500 RLU; Trimeric HA Binding: RLU [9]: 1150 RLU; Trimeric HA Binding: RLU [10]: 352 RLU; Trimeric HA Binding: RLU [13]: 970 RLU; Trimeric HA Binding: RLU [15]: 160 RLU
B2	16900 RLU						252 RLU	155 RLU	278 RLU	40 RLU	401 RLU	2620 RLU	1600 RLU	2020 RLU	3340 RLU	1080 RLU	16800 RLU	1350 RLU	2090 RLU	1320 RLU	Trimeric HA Binding: RLU [30]: 6970 RLU
B3		257 RLU	27200 RLU	24700 RLU	13600 RLU	25500 RLU						29400 RLU	10000 RLU	40700 RLU		36100 RLU	21900 RLU	34400 RLU	5840 RLU	33400 RLU	Trimeric HA Binding: RLU [31]: 20200 RLU; Trimeric HA Binding: RLU [30]: 26600 RLU; Trimeric HA Binding: RLU [32]: 9730 RLU; Trimeric HA Binding: RLU [33]: 4380 RLU; Trimeric HA Binding: RLU [34]: 320 RLU; Trimeric HA Binding: RLU [35]: 12300 RLU; Trimeric HA Binding: RLU [36]: 623 RLU; Trimeric HA Binding: RLU [37]: 22000 RLU
B4							240 RLU	283 RLU	184 RLU	416 RLU	758 RLU	2100 RLU	1620 RLU	1150 RLU	5740 RLU	750 RLU		1020 RLU	2130 RLU	1060 RLU	Trimeric HA Binding: RLU [38]: 234 RLU; Trimeric HA Binding: RLU [31]: 818 RLU
